Experimental data as given in article PMC10770723 (2023).

Biological target: T1, recombinant Der p 2 (Dermatophagoides pteronyssinus …, UniProt P49278)
T1 chain: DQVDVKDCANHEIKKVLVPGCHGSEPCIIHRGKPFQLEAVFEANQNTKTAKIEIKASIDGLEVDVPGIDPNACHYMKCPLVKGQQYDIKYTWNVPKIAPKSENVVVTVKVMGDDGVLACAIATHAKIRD
Experiment: ELISA (coated rDer p 2, Siglec-Fc binding); Unmodified rDer p 2 does not bind; binding to Siglec-9-Fc requires chemical conjugation of α2-3 sialic acids to rDer p 2 (sia-rDer p 2)

B1: Siglec-9–hFc chimera (protein)
chain: QTSKLLTMQSSVTVQEGLCVHVPCSFSYPSHGWIYPGPVVHGYWFREGANTDQDAPVATNNPARAVWEETRDRFHLLGDPHTKNCTLSIRDARRSDAGRYFFRMEKGSIKWNYKHHRLSVNVTALTHRPNILIPGTLESGCPQNLTCSVPWACEQGTPPMISWIGTSVSPLDPSTTRSSVLTLIPQPQDHGTSLTCQVTFPGASVTTNKTVHLNVSYPPQNLTMTVFQGDGTVSTVLGNGSSLSLPEGQSLRLVCAVDAVDSNPPARLSLSWRGLTLCPSQPSNPGVLELPWVHLRDAAEFTCRAQNPLGSQQVYLNVSLQSKATSGVTQG
B1: no binding.
